This is an account of results in the supplement of paper PMC9112550, “Optimization of the antimicrobial peptide Bac7 by deep mutational scanning” (BMC Biology, 2022).
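Note: peptides expressed intracellularly from a pBAD plasmid library in pooled LB shake-flask culture, induced with 0.3% L-arabinose, DNA abundance read by NGS, three biological replicates, DESeq2 with apeglm shrinkage.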

This data set has as its system Escherichia coli TOP10. In words: shrunken log2 fold change of peptide-encoding DNA abundance (4.5 h post-induction vs induction); higher = less antimicrobial activity (less host growth inhibition). Conditions: time post-induction: 4.5 h; library: site-saturation at positions 5, 18, 19, 20.
Regarding RRIRIRPPRLPRPRPRPYGYPRP, the “shrunken log2 fold change” value is -0.0764. The result for RRIRARPPRLPRPRPRPSGDPRP reads 0.15. The result for RRIRIRPPRLPRPRPRPPHEPRP reads 0.225; that for RRIRYRPPRLPRPRPRPQGSPRP, -0.19.

Turning to RRIRIRPPRLPRPRPRPFVRPRP, the “shrunken log2 fold change” value is -0.0158. The result for RRIRARPPRLPRPRPRPKLPPRP reads 0.184; that for RRIRCRPPRLPRPRPRPGQIPRP, 0.165.

Consider RRIRMRPPRLPRPRPRPTCEPRP, for which the “shrunken log2 fold change” value stood at 0.745. The result for RRIRSRPPRLPRPRPRPPSDPRP reads 0.385; that for RRIRYRPPRLPRPRPRPMMQPRP, -1.94.

As to RRIRMRPPRLPRPRPRPKMVPRP, the “shrunken log2 fold change” value was 2.27. The result for RRIRWRPPRLPRPRPRPNYEPRP reads -0.222. The result for RRIRIRPPRLPRPRPRPMIQPRP reads 0.102.

Regarding RRIRGRPPRLPRPRPRPDEDPRP, the “shrunken log2 fold change” value turned out to be 0.168. The result for RRIRQRPPRLPRPRPRPEYEPRP reads -0.157. The result for RRIRERPPRLPRPRPRPHRNPRP reads -0.869; that for RRIRCRPPRLPRPRPRPSMEPRP, -0.344. Under RRIRWRPPRLPRPRPRPMYAPRP stands 0.325; under RRIRLRPPRLPRPRPRPQHIPRP, -0.812. For RRIRWRPPRLPRPRPRPFETPRP, the “shrunken log2 fold change” value amounted to 0.0441. Turning to RRIRCRPPRLPRPRPRPRRPPRP, the “shrunken log2 fold change” value amounted to 0.654. Consider RRIRDRPPRLPRPRPRPYDRPRP, for which the “shrunken log2 fold change” value was -0.0075. The result for RRIRGRPPRLPRPRPRPTKIPRP reads 0.462; that for RRIRLRPPRLPRPRPRPEVHPRP, 0.101.

With RRIRKRPPRLPRPRPRPMAFPRP, the “shrunken log2 fold change” value amounted to 0.25. Under RRIRIRPPRLPRPRPRPIKCPRP stands -0.446; under RRIRMRPPRLPRPRPRPMCQPRP, 0.00866. With RRIRSRPPRLPRPRPRPPMIPRP, the “shrunken log2 fold change” value was -0.17. The result for RRIRLRPPRLPRPRPRPYETPRP reads -0.0853; that for RRIRWRPPRLPRPRPRPSIGPRP, -0.175; that for RRIRQRPPRLPRPRPRPLNAPRP, 0.0127. For RRIRYRPPRLPRPRPRPCHPPRP, the “shrunken log2 fold change” value is -0.669. In the case of RRIRCRPPRLPRPRPRPDLRPRP, the “shrunken log2 fold change” value was -0.035. Under RRIRARPPRLPRPRPRPHVVPRP stands -0.288; under RRIRTRPPRLPRPRPRPNCVPRP, 0.00481; under RRIRRRPPRLPRPRPRPVLPPRP, 0.584. As to RRIRCRPPRLPRPRPRPYINPRP, the “shrunken log2 fold change” value was -0.968. Turning to RRIRCRPPRLPRPRPRPSYAPRP, the “shrunken log2 fold change” value is -0.544.

RRIRVRPPRLPRPRPRPGDYPRP: the “shrunken log2 fold change” value is -0.0161. As for RRIRVRPPRLPRPRPRPSIAPRP, the “shrunken log2 fold change” value is -0.0218.

RRIRGRPPRLPRPRPRPMQLPRP: the “shrunken log2 fold change” value stood at 0.539.

In the case of RRIRQRPPRLPRPRPRPTVFPRP, the “shrunken log2 fold change” value was -0.0987. Regarding RRIRPRPPRLPRPRPRPDTWPRP, the “shrunken log2 fold change” value worked out at 0.0185. Consider RRIRQRPPRLPRPRPRPSWCPRP, for which the “shrunken log2 fold change” value is -0.141. Under RRIRFRPPRLPRPRPRPSTAPRP stands -0.0915; under RRIRRRPPRLPRPRPRPWHPPRP, 0.0925; under RRIRYRPPRLPRPRPRPANEPRP, 0.0338. On to RRIRMRPPRLPRPRPRPPDDPRP, for which the “shrunken log2 fold change” value came out at 0.0932.

Consider RRIRSRPPRLPRPRPRPWIMPRP, for which the “shrunken log2 fold change” value is -0.572. RRIRHRPPRLPRPRPRPNCSPRP: the “shrunken log2 fold change” value came to 0.0841. The result for RRIRERPPRLPRPRPRPTNYPRP reads -0.068; that for RRIRIRPPRLPRPRPRPSMHPRP, -0.511. With RRIRMRPPRLPRPRPRPSPVPRP, the “shrunken log2 fold change” value came out at 0.384. RRIRQRPPRLPRPRPRPLLMPRP: the “shrunken log2 fold change” value came out at 0.181. Regarding RRIRHRPPRLPRPRPRPHGTPRP, the “shrunken log2 fold change” value was -0.0524. Under RRIRVRPPRLPRPRPRPREYPRP stands 0.0223; under RRIRNRPPRLPRPRPRPFHWPRP, -0.186. In the case of RRIRGRPPRLPRPRPRPIDDPRP, the “shrunken log2 fold change” value is 0.329. Under RRIRPRPPRLPRPRPRPCFYPRP stands -0.242. The result for RRIRKRPPRLPRPRPRPYCYPRP reads -0.182; that for RRIRLRPPRLPRPRPRPLQCPRP, 0.121; that for RRIRYRPPRLPRPRPRPRMRPRP, 0.667.

RRIRNRPPRLPRPRPRPPPEPRP: the “shrunken log2 fold change” value came to 1.1. With RRIRNRPPRLPRPRPRPDPSPRP, the “shrunken log2 fold change” value is 0.152. Under RRIRIRPPRLPRPRPRPRCYPRP stands -0.586; under RRIRERPPRLPRPRPRPFMIPRP, -0.768.

Take RRIRARPPRLPRPRPRPKKAPRP: the “shrunken log2 fold change” value is 0.285.

Regarding RRIRMRPPRLPRPRPRPDVTPRP, the “shrunken log2 fold change” value turned out to be 0.109. RRIRHRPPRLPRPRPRPIDEPRP: the “shrunken log2 fold change” value amounted to 0.142. In the case of RRIRNRPPRLPRPRPRPASSPRP, the “shrunken log2 fold change” value is -0.317. Under RRIRARPPRLPRPRPRPIVYPRP stands -0.248; under RRIRFRPPRLPRPRPRPCPCPRP, -0.21.

As to RRIRWRPPRLPRPRPRPIWTPRP, the “shrunken log2 fold change” value came out at 0.107. As to RRIRRRPPRLPRPRPRPSWAPRP, the “shrunken log2 fold change” value was 0.157. Under RRIRIRPPRLPRPRPRPQISPRP stands 0.0222; under RRIRLRPPRLPRPRPRPEQNPRP, 0.41; under RRIRSRPPRLPRPRPRPTDVPRP, 0.0781. Under RRIRWRPPRLPRPRPRPMVSPRP stands -0.0339; under RRIRHRPPRLPRPRPRPSAVPRP, -0.341; under RRIRWRPPRLPRPRPRPGKKPRP, 0.375. Under RRIRMRPPRLPRPRPRPQWQPRP stands 0.825; under RRIRDRPPRLPRPRPRPEIMPRP, 0.245; under RRIRGRPPRLPRPRPRPNTCPRP, 0.103. Consider RRIRPRPPRLPRPRPRPFCWPRP, for which the “shrunken log2 fold change” value is 0.447. The result for RRIRTRPPRLPRPRPRPYLNPRP reads -0.484; that for RRIRMRPPRLPRPRPRPLQYPRP, -0.106; that for RRIRGRPPRLPRPRPRPAREPRP, 0.38. The result for RRIRWRPPRLPRPRPRPYWFPRP reads -0.0484; that for RRIRMRPPRLPRPRPRPNVRPRP, 0.0272. The result for RRIRFRPPRLPRPRPRPDKHPRP reads -0.478; that for RRIRYRPPRLPRPRPRPTEGPRP, -0.96. In the case of RRIRWRPPRLPRPRPRPWADPRP, the “shrunken log2 fold change” value worked out at 0.0109.

As to RRIRHRPPRLPRPRPRPTMHPRP, the “shrunken log2 fold change” value is -0.0232. As for RRIRLRPPRLPRPRPRPRRFPRP, the “shrunken log2 fold change” value was found to be 0.142. The result for RRIRDRPPRLPRPRPRPWVSPRP reads -0.0385. The result for RRIRQRPPRLPRPRPRPDCHPRP reads -0.0897. The result for RRIRARPPRLPRPRPRPRINPRP reads 0.105. RRIRWRPPRLPRPRPRPGVSPRP: the “shrunken log2 fold change” value stood at 0.34. RRIRQRPPRLPRPRPRPRNRPRP: the “shrunken log2 fold change” value came out at 0.0911. On to RRIRVRPPRLPRPRPRPSYDPRP, for which the “shrunken log2 fold change” value was -0.576.

Take RRIRRRPPRLPRPRPRPQLSPRP: the “shrunken log2 fold change” value is 0.976. The result for RRIRIRPPRLPRPRPRPQWLPRP reads -0.0168; that for RRIRLRPPRLPRPRPRPDQQPRP, -0.174.

As to RRIRCRPPRLPRPRPRPLMEPRP, the “shrunken log2 fold change” value was -0.0946. The result for RRIRARPPRLPRPRPRPTYSPRP reads -0.204.

Consider RRIRMRPPRLPRPRPRPADLPRP, for which the “shrunken log2 fold change” value amounted to 0.752. The result for RRIRIRPPRLPRPRPRPDLHPRP reads 0.0268. The result for RRIRLRPPRLPRPRPRPTTHPRP reads -0.102; that for RRIRHRPPRLPRPRPRPYAFPRP, 0.0613; that for RRIRLRPPRLPRPRPRPDVAPRP, 0.093. The result for RRIRFRPPRLPRPRPRPQMEPRP reads -0.059; that for RRIRLRPPRLPRPRPRPIDNPRP, -0.421.

For the sequence RRIRNRPPRLPRPRPRPHPGPRP, the “shrunken log2 fold change” value is -0.0788.

Regarding RRIRERPPRLPRPRPRPWSDPRP, the “shrunken log2 fold change” value is -0.0787.

Turning to RRIRWRPPRLPRPRPRPIYFPRP, the “shrunken log2 fold change” value was -0.198. Under RRIRCRPPRLPRPRPRPEGVPRP stands 2.48; under RRIRNRPPRLPRPRPRPCQLPRP, -0.0247; under RRIRYRPPRLPRPRPRPFLFPRP, -0.704. Under RRIRARPPRLPRPRPRPGSHPRP stands 0.101; under RRIRIRPPRLPRPRPRPPWMPRP, -0.0904; under RRIRDRPPRLPRPRPRPHPKPRP, -0.149. As to RRIRTRPPRLPRPRPRPRQPPRP, the “shrunken log2 fold change” value turned out to be 0.135. The result for RRIRTRPPRLPRPRPRPPDMPRP reads -0.142; that for RRIRCRPPRLPRPRPRPTLYPRP, -0.396. Under RRIRDRPPRLPRPRPRPCFPPRP stands -0.0323.
